In US20210261671A1 (HARPOON THERAPEUTICS, published 2021):
Substitutions are numbered along the chain they refer to.

B1: FLL84 (VHH)
VHH: QVQLQESGGGLVQAGGSLMVSCAASGGTFSSYATGWFRQVPGKEREFIAGISRSGGRTYYAESVKGRFTISRDNAKNTVYLQMNTLKPDDTAVYYCAAARYFTTSVVYTSGDDYDYWGQGTQVTVSS
notes: llama anti-FLT3 variable domain; E. coli periplasmic extract
B2: FLL122 (VHH)
VHH: B1 VHH with F29W, F47L, T104S, D112N
notes: as for B1
B3: FLL92 (VHH)
VHH: B1 VHH with F29W, F47L, P88S, T104S, D112N
notes: as for B1
B4: FLL67 (VHH)
VHH: B1 VHH with A14L, G16D
notes: as for B1
B5: FLL71 (VHH)
VHH: B1 VHH with A14V, S54N, G55S, T104R, S105D, V106A
notes: as for B1
B6: FLL8 (VHH)
VHH: B1 VHH with A14V, S54N, G55S, T104R, S105D
notes: as for B1
B7: FLL41 (VHH)
VHH: B1 VHH with A14L, G16D, K43R
notes: as for B1
B8: FLL153 (VHH)
VHH: B1 VHH with A14V, I51V, S54N, G55S, A92G, T104R, S105D, V106A
notes: as for B1
B9: FLL102 (VHH)
VHH: B1 VHH with F29W, E46K, F47L, T104S, D112N
notes: as for B1
B10: FLL134 (VHH)
VHH: QVQLQESGGGLVQPGGSLRLSCAASGGTFSSYATGWFRQVPGKEREFIAGISRNSGRTYAESVKGRFTISRDNAKNTVYLQMNTLRPDDTAVYYCAAARYFTRDAIYTSGDDYDYWGQGTQVTASS
notes: as for B1
B11: FLL112 (VHH)
VHH: QVQLQESGGGLVQAGGSLRLSCAVSGRTFSGFGTGWFRQAPGKEREFVAAISWAGGRTHYEDSVKGRFTIHRDNAKNTVYLQMNSLKPEDTAVYYCAAQVSRAYDGIWYSGGDYWGQGTQVTVSS
notes: as for B1
B12: FLL143 (VHH)
VHH: B11 VHH with A54V, E61A, H71S, S101A, I107N
notes: as for B1
B13: FLL142 (VHH)
VHH: B11 VHH with A54D, E61A, S63F, H71S, S101A, G106S, I107K
notes: as for B1
B14: FLL168 (VHH)
VHH: QVQLQESGGGSVQAGGSLRLSCAFSGRTFSGFGTGWFRQAPEKEREFVAAISWDGGRTHYADSVKGRFTISRDNAKNTVYLQMDSLKPEDTAIYYCAAQVSRAYDGRWYSAVDYWGRGTQVTVSS
notes: as for B1
B15: FLL188 (VHH)
VHH: B11 VHH with R19G, A40P, G42E, A54D, E61A, H71S, Y80F, S101A, G106S, I107R
notes: as for B1
B16: FLL170 (VHH)
VHH: B11 VHH with A54S, R57T, E61A, H71S, A98G, S101A, G106S, I107S, G111R
notes: as for B1
B17: FLL553 (VHH)
VHH: QVQLQESGGGLVQAGGSLRLSCAVSGRTFSGFGTGWFRQAPGKEREFVAAISWSGGTTHYADSVKGRFTISRDNAKNTVNLVYLQMNSLRPEDTAVYYCAGQVARAYDSNWYSRGDYWGQGTQVTVSS
notes: as for B1
B18: FLL75 (VHH)
VHH: B17 VHH with S88D
notes: as for B1
B19: FLL40 (VHH)
VHH: B17 VHH with N80S, R90K, E92D, N110S, W118L
notes: as for B1
B20: FLL53 (VHH)
VHH: B17 VHH with G16D, I51V, W53Q, V79E, N80T, R90K, N110S, S113A
notes: as for B1
B21: biotinylated cynomolgus FLT3 protein (receptor, cynomolgus monkey)
chain: NQDLPVIKCVLINHKNNDSSVGKSSSYPMVSESPEDLGCALRPQSAGTVYEAATVEVDVSASITLQVLVDTPGNISCLWVFKHSSLNCQPHFDVQNRGVVSMVILKMTETQAGEYLLFIQSEATNYTIVFTVSIRNTLLFTLRRPYFRKMENQDALVCISESVPEPIVEWVLCDSQGESCKEESPAVVKKEEKVLHELFGTDIRCCARNELGRECTRLFTIDLNQTPQTTLPQLFLKVGEPLWIRCKAVHVNHGFGLTWELENKALEEGSYFEMSTYSTNRTMIRILFAFVSSVARNDTGYYTCSSSKHPSQSALVTIVEKGFINATNSSEDYEIDQYEEFCFSVRFKAYPQIRCTWTFSRKAFPCEQKALDDGYSVSKFCNHKHQPGEYIFHAENGDAQFTKMFTLNIRRKPQVLAEASASQASCSSDGYPLPSWTWKKCSDKSPNCTEDIPEGVWNRKANRKVFGQWVSSSTLNMSEAMKGFLVKCCAYNSLGTSCETILLNSPGPFPFIQDS
modifications: biotinylated (sites not given)
notes: loaded on streptavidin Octet tips; also called Cynomolgus Monkey FLT3
B22: cynomolgus serum albumin (other, cynomolgus monkey, UniProt A2V9Z4 25-608, looked up)
chain: DTHKSEVAHRFKDLGEEHFKGLVLVAFSQYLQQCPFEEHVKLVNEVTEFAKTCVADESAENCDKSLHTLFGDKLCTVATLRETYGEMADCCAKQEPERNECFLQHKDDNPNLPPLVRPEVDVMCTAFHDNEATFLKKYLYEVARRHPYFYAPELLFFAARYKAAFAECCQAADKAACLLPKLDELRDEGKASSAKQRLKCASLQKFGDRAFKAWAVARLSQKFPKAEFAEVSKLVTDLTKVHTECCHGDLLECADDRADLAKYMCENQDSISSKLKECCDKPLLEKSHCLAEVENDEMPADLPSLAADYVESKDVCKNYAEAKDVFLGMFLYEYARRHPDYSVMLLLRLAKAYEATLEKCCAAADPHECYAKVFDEFQPLVEEPQNLVKQNCELFEQLGEYKFQNALLVRYTKKVPQVSTPTLVEVSRNLGKVGAKCCKLPEAKRMPCAEDYLSVVLNRLCVLHEKTPVSEKVTKCCTESLVNRRPCFSALELDEAYVPKAFNAETFTFHADMCTLSEKEKQVKKQTALVELVKHKPKATKEQLKGVMDNFAAFVEKCCKADDKEACFAEEGPKFVAASQAALA

Biological target: T1, human FLT3 protein (human, UniProt P36888 27-541, limits assumed)
T1 construct: protein coated in the screening ELISA; also called ELISA FLT3
Experiment: colorimetric ELISA, periplasmic extract
Source text: (§1) Llamas were immunized with purified FLT3 protein expressed in Expi293 cells. A phage display library for expression of heavy variable antibody domains was constructed from circulating B cells isolated from the immunized llamas (See van der Linden, de Geus, Stok, Bos, van Wassenaar, Verrips, and Frenken. 2000. J Immunol Methods 240:185-195). Phage clones were screened for binding to FLT3 by expressing llama anti-FLT3 proteins in E. coli, preparing periplasmic extracts, and performing colorimetric ELISAs.

Binder | ELISA FLT3 (absorbance)
B1 | 1.3
B2 | 4
B3 | 4
B4 | 2.7
B5 | 1.9
B6 | 3.3
B7 | 0.8
B8 | 1.4
B9 | 3.7
B10 | 1.3
B11 | 3.6
B12 | 4
B13 | 4
B14 | 4
B15 | 4
B16 | 4
B17 | 3.7
B18 | 4
B19 | 4
B20 | 3.9

Biological target: T2, anti-FLT3/anti-albumin/anti-CD3 multispecific protein containing FLL92
T2 construct: trispecific single-chain fusion with His6; Expi293 conditioned medium
Experiment: BLI (Octet), conditioned medium, single 50 nM concentration (relative affinity)
Method: (§2) Additional affinity determinations were performed using conditioned media from Example 2 with known concentrations of anti-FLT3/anti-CD3 multispecific proteins. […] An Octet instrument with streptavidin tips were loaded with biotinylated human or cynomolgus FLT3 protein, and KD values for binding FLT3 were calculated by measuring the on rate and off rate of binding of anti-FLT3/anti-CD3 multispecific proteins to the biotinylated FLT3 proteins.

Binder | Kd [nM]
B21 | 2

Biological target: T3, anti-FLT3/anti-albumin/anti-CD3 multispecific protein containing FLL71
T3 construct: trispecific single-chain fusion with His6; Expi293 conditioned medium
Experiment: as above
Method: as §2

Binder | Kd [nM]
B21 | 26

Biological target: T4, anti-FLT3/anti-albumin/anti-CD3 multispecific protein containing FLL41
T4 construct: trispecific single-chain fusion with His6; Expi293 conditioned medium
Experiment: as above
Method: as §2

T4 sequence (chain, as listed by the source): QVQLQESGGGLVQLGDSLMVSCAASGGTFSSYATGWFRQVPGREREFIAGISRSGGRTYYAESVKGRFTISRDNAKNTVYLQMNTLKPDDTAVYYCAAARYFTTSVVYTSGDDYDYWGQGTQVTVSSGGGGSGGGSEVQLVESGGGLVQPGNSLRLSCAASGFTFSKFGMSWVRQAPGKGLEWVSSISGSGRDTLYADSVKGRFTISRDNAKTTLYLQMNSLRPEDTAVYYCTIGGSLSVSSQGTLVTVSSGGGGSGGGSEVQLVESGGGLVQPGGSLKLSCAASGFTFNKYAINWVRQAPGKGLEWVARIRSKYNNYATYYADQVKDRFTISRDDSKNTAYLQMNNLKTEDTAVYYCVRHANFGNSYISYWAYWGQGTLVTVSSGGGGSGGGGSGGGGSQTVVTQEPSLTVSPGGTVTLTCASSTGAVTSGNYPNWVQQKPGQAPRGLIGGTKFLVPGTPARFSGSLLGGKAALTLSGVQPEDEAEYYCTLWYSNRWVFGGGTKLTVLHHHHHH

Binder | Kd [nM]
B21 | 34

Biological target: T5, anti-FLT3/anti-albumin/anti-CD3 multispecific protein containing FLL8
T5 construct: trispecific single-chain fusion with His6; Expi293 conditioned medium
Experiment: as above
Method: as §2

Binder | Kd [nM]
B21 | 18

Biological target: T6, anti-FLT3/anti-albumin/anti-CD3 multispecific protein containing FLL153
T6 construct: trispecific single-chain fusion with His6; Expi293 conditioned medium
Experiment: as above
Method: as §2

Binder | Kd [nM]
B21 | 102

Biological target: T7, anti-FLT3/anti-albumin/anti-CD3 multispecific protein containing FLL134
T7 construct: trispecific single-chain fusion with His6; Expi293 conditioned medium
Experiment: as above
Method: as §2

Binder | Kd [nM]
B21 | 24

Biological target: T8, anti-FLT3/anti-albumin/anti-CD3 multispecific protein containing humanized FLH19C
T8 construct: trispecific single-chain fusion with His6; purified from CHO conditioned medium
Experiment: biolayer interferometry (data not shown)

T8 sequence (chain, as listed by the source): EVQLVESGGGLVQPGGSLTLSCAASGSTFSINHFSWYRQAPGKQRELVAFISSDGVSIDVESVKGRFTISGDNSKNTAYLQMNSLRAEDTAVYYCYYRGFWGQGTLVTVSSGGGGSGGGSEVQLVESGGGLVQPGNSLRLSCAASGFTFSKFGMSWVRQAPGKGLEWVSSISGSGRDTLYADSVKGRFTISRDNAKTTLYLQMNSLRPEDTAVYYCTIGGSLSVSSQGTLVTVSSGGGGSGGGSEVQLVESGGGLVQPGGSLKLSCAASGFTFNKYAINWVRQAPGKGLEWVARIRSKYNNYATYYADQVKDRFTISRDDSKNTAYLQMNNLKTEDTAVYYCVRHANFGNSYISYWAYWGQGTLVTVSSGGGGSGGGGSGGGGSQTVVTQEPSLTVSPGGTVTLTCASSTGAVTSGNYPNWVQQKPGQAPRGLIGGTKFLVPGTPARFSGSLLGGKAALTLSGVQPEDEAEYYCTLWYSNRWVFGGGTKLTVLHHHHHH

Binder | Kd [nM]
B22 | 4.4

Biological target: T1, human FLT3 protein
Experiment: colorimetric ELISA, signal over control wells lacking FLT3
Source text: as §1

Binder | FLT3/control [ratio]
B1 | 4
B2 | 26
B3 | 25
B4 | 12
B5 | 9
B6 | 14
B7 | 5
B8 | 15
B9 | 37
B10 | 15
B11 | 34
B12 | 47
B13 | 15
B14 | 28
B15 | 51
B16 | 38
B17 | 37
B18 | 19
B19 | 21
B20 | 17

Biological target: T9, anti-FLT3/anti-albumin/anti-CD3 multispecific protein containing humanized FLH34
T9 construct: trispecific single-chain fusion with His6; purified from CHO conditioned medium
Experiment: BLI (Octet), biotinylated FLT3 on streptavidin tips
Method: (§3) The affinities of the purified multispecific proteins for human and cynomolgus FLT3 were measured with an Octet instrument with streptavidin tips were loaded with biotinylated human or cynomolgus FLT3 protein. The tips were then incubated with solutions containing 50, 16.7, 5.6, or 1.9 nM of the multispecific protein. Affinities (KD), listed in Table 7, were calculated by measuring the on rate and off rate of binding of anti-FLT3/anti-albumin/anti-CD3 multispecific proteins to the captured biotinylated FLT3 proteins.

T9 sequence (chain, as listed by the source): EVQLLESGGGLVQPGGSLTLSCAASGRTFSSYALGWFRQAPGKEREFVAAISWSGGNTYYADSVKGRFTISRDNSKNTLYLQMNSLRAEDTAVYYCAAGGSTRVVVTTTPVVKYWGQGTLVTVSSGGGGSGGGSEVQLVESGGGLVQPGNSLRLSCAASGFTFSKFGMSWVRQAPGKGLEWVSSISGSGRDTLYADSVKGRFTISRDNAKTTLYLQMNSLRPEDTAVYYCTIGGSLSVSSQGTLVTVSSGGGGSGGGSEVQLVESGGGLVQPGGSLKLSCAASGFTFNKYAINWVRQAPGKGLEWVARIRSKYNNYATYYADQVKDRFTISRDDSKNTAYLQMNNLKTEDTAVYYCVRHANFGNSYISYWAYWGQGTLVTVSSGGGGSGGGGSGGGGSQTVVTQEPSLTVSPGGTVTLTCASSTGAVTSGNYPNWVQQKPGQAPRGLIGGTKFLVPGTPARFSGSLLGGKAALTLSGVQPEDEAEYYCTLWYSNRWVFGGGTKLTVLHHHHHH

Binder | Kd [nM]
B21 | 19

Biological target: T10, anti-FLT3/anti-albumin/anti-CD3 multispecific protein containing humanized FLH141
T10 construct: trispecific single-chain fusion with His6; purified from CHO conditioned medium
Experiment: as above
Method: as §3

T10 sequence (chain, as listed by the source): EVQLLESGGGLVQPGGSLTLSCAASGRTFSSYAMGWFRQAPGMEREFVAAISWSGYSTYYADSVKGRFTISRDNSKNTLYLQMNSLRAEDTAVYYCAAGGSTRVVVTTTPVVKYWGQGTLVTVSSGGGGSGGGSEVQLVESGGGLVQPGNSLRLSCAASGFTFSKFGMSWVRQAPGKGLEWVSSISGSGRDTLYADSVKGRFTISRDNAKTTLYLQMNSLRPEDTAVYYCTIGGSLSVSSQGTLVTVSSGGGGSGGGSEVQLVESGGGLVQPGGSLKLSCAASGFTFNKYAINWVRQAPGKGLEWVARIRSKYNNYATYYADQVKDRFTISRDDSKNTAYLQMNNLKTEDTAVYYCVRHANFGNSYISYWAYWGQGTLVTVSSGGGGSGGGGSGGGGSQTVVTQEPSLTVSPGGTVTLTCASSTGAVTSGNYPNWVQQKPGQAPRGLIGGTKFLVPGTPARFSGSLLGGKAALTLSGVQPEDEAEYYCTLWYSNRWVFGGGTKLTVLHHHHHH

Binder | Kd [nM]
B21 | 35

Biological target: T11, anti-FLT3/anti-albumin/anti-CD3 multispecific protein containing humanized FLH4
T11 construct: trispecific single-chain fusion with His6; purified from CHO conditioned medium
Experiment: as above
Method: as §3

T11 sequence (chain, as listed by the source): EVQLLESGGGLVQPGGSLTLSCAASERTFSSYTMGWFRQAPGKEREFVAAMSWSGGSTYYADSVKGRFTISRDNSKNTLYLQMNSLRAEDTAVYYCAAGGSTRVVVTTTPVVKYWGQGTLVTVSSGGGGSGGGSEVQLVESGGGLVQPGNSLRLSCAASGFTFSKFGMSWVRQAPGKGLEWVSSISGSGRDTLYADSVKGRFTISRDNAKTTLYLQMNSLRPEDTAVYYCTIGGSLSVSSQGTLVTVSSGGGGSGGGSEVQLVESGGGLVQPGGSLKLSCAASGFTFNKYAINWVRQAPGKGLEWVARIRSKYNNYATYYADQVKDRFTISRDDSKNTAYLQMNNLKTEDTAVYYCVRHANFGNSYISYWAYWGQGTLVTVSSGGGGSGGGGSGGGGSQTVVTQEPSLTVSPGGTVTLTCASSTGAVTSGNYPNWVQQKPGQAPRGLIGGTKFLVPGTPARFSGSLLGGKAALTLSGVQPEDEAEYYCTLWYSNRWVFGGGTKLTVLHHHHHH

Binder | Kd [nM]
B21 | 214

Biological target: T12, anti-FLT3/anti-albumin/anti-CD3 multispecific protein containing humanized FLH78
T12 construct: trispecific single-chain fusion with His6; purified from CHO conditioned medium
Experiment: as above
Method: as §3

T12 sequence (chain, as listed by the source): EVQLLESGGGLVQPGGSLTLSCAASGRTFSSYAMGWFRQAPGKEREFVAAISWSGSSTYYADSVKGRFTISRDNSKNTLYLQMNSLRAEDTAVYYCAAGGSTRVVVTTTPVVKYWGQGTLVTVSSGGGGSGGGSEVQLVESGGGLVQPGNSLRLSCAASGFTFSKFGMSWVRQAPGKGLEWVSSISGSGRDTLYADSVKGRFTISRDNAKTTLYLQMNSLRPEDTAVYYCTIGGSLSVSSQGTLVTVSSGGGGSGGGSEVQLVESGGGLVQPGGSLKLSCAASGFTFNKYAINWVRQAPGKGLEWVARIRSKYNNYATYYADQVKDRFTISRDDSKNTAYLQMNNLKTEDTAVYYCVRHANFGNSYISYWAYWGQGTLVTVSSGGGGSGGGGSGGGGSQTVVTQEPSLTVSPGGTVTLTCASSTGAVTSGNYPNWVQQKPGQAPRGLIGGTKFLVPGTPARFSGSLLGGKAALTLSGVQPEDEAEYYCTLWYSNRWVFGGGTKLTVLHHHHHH

Binder | Kd [nM]
B21 | 161

Biological target: T8, anti-FLT3/anti-albumin/anti-CD3 …
Experiment: as above
Method: as §3

Binder | Kd [nM]
B21 | 2.7

Biological target: T13, anti-FLT3/anti-albumin/anti-CD3 multispecific protein containing humanized FLH92b
T13 construct: trispecific single-chain fusion with His6; purified from CHO conditioned medium
Experiment: as above
Method: as §3

T13 sequence (chain, as listed by the source): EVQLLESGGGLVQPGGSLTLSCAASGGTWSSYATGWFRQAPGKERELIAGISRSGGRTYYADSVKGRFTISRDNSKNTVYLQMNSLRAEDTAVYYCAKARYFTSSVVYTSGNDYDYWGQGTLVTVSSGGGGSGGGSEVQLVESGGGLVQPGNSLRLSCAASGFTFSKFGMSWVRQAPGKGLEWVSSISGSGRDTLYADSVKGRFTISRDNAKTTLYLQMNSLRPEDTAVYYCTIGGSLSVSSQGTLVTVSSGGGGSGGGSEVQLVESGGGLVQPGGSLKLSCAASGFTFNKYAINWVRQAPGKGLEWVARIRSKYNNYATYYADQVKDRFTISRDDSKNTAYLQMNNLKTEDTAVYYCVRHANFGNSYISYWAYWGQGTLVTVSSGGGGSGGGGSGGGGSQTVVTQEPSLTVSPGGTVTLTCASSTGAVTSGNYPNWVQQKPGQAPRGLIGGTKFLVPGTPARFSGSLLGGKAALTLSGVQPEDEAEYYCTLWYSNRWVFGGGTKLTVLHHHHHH

Binder | Kd [nM]
B21 | 7.8

Biological target: T14, anti-FLT3/anti-albumin/anti-CD3 multispecific protein containing humanized FLH107
T14 construct: trispecific single-chain fusion with His6; purified from CHO conditioned medium
Experiment: as above
Method: as §3

T14 sequence (chain, as listed by the source): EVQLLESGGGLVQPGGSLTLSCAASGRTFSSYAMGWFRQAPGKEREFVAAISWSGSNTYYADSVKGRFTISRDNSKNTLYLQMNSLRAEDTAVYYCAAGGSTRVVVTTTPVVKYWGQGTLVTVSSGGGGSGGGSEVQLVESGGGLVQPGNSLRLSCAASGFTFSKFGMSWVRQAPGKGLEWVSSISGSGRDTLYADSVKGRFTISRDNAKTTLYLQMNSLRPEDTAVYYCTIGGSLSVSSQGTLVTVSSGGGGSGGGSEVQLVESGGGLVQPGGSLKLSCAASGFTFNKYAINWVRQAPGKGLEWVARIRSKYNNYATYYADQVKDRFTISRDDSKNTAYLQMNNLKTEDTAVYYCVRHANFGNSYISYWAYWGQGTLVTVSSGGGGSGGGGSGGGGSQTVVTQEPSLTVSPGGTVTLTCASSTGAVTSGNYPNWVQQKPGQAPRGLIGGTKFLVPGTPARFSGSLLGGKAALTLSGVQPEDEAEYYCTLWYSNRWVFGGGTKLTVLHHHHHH

Binder | Kd [nM]
B21 | 10

Biological target: T15, anti-FLT3/anti-albumin/anti-CD3 multispecific protein containing humanized FLH92a
T15 construct: trispecific single-chain fusion with His6; purified from CHO conditioned medium
Experiment: as above
Method: as §3

T15 sequence (chain, as listed by the source): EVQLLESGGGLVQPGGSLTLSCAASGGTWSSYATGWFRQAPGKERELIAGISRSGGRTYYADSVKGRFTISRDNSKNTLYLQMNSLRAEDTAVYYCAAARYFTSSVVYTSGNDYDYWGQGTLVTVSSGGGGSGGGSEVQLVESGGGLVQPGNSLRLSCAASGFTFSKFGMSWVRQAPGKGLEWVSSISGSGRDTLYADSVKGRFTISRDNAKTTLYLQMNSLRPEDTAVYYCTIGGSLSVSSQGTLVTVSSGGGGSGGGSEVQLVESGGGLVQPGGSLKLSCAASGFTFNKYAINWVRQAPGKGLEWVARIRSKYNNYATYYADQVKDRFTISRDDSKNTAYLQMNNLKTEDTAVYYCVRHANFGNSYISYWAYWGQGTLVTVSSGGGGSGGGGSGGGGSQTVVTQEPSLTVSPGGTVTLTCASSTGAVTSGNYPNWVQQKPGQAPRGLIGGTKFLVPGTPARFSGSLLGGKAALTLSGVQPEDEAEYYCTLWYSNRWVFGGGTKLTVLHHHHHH

Binder | Kd [nM]
B21 | 11.8
